The text below walks through data of patent US20250263472A1 (IGGENIX, published 2025).

The test deals with T1, Natural Ara h 6 (InBio) (peanut, UniProt Q647G9 22-145).
T1 sequence (looked up): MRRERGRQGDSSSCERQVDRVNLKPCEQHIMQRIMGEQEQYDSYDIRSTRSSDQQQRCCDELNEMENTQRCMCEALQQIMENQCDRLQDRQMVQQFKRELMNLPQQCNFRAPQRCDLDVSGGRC
Briefly: told in the description of Combination-1; assay not named.

B1: Molecule-1a (bispecific antibody, human IgG4 S228P, kappa)
heavy: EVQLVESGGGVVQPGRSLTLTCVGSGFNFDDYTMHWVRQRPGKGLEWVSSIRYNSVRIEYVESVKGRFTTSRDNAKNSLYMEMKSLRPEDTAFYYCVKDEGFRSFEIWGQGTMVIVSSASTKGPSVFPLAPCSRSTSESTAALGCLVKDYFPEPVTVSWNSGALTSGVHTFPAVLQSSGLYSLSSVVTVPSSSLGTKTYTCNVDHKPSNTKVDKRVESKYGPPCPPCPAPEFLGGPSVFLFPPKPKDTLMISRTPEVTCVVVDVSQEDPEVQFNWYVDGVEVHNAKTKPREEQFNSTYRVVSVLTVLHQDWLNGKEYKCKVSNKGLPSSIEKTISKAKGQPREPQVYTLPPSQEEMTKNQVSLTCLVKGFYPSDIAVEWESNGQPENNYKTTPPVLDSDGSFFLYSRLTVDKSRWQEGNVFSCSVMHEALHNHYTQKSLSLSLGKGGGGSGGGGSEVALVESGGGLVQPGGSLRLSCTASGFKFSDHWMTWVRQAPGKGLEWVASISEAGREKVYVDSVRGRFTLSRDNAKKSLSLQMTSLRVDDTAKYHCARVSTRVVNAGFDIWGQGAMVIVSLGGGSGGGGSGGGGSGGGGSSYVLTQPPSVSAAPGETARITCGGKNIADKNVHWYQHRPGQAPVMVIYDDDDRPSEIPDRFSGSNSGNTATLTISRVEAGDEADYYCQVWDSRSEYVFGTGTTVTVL
light: DIVMTQSPLSLPVTPGEPASISCRSTQSLEHSNGYHYLDWYVQKAGQSPQLLISLGSKRASGVPDRFSGSVSGTDFTLKISRVEAEDVGVYYCMQALQTWTFGQGTKVEIKRTVAAPSVFIFPPSDEQLKSGTASVVCLLNNFYPREAKVQWKVDNALQSGNSQESVTEQDSKDSTYSLSSTLTLSKADYEKHKVYACEVTHQGLSSPVTKSFNRGEC
notes: CMC liabilities removed; also called Molecule-1 (of Combination-1)
For the molecule B1, the binding result is “binds”.
